Results as given in paper PMC5006311.

Assay: immunofluorescence confocal microscopy, HEK293
Conditions: glycan lost; control: wt hENT1 (HA- or 3xFLAG-tagged)

B1: human equilibrative nucleoside transporter 1 (hENT1): N48Q (protein)
parent chain: MTTSHQPQDRYKAVWLIFFMLGLGTLLPWNFFMTATQYFTNRLDMSQNVSLVTAELSKDAQASAAPAAPLPERNSLSAIFNNVMTLCAMLPLLLFTYLNSFLHQRIPQSVRILGSLVAILLVFLITAILVKVQLDALPFFVITMIKIVLINSFGAILQGSLFGLAGLLPASYTAPIMSGQGLAGFFASVAMICAIASGSELSESAFGYFITACAVIILTIICYLGLPRLEFYRYYQQLKLEGPGEQETKLDLISKGEEPRAGKEESGVSVSNSQPTNESHSIKAILKNISVLAFSVCFIFTITIGMFPAVTVEVKSSIAGSSTWERYFIPVSCFLTFNIFDWLGRSLTAVFMWPGKDSRWLPSLVLARLVFVPLLLLCNIKPRRYLTVVFEHDAWFIFFMAAFAFSNGYLASLCMCFGPKKVKPAEAETAGAIMAFFLCLGLALGAVFSFLFRAIV
**Q.** For B1, which localisation_or_trafficking is on record?
**A.** Its localisation_or_trafficking is “decreases”.
